Entries after “also recorded” stand apart in the source; their conditions may differ.
Legend:
[1] = GDH enzymatic assay with NADP^+ as cofactor; type: biochemical; conditions: for decrease of catalytic efficiency on NADP^+: versus wild type
Procedure: (§1) GDH enzymatic assays. The GDH activity was measured as described in Hilt et al. (Biochimica et biophysica acta 1076(2):298-304 (1991)). The reactions were started by adding the purified protein to the assay mixture containing 35 mM Tris-HCl buffer (pH 8.0), 3 mM NAD^+, NADP^+ or NMN^+ and 140 mM glucose. The absorbance variation at 340 nm was detected by a spectrophotometer at 25° C.

[2] = XenA-GDH coupled cycling assay, trans-2-hexen-1-al; type: biochemical; conditions: 50 mM, 24 hours, NMN^+
Procedure: (§2) Coupled enzymatic biotransformation. All biotransformation reactions were performed in buffer A at 30° C. for 24 hours. Reaction buffer A, modified from that disclosed in Chaparro-Riggers et al., Advanced Synthesis & Catalysis 349(8-9):1521-1531 (2007)), contained 200 mM potassium phosphate buffer (pH 7.5), 1 M NaCl, 300 mM D-glucose, 6 mM NMN^+ (or NADP^+ as the positive control), and substrates. All assays were performed in triplicate, with no proteins or no cofactors added as negative controls. The protein loading for GDH variants was kept at 0.33 mg mL^−1 or 11.7 μM. The various enzymes for biotransformation reactions were added at the concentration of 0.75 mg mL^−1.
(§3) For XenA-GDH coupled cycling assays, the substrates ketoisophorone, citral, or trans-2-hexen-1-al were added at 33 mM, 10 mM, or 50 mM, respectively. […] Conversion was determined via GC-FID with octanol as an internal standard (see below). […] Nitrofurazone conversion was measured spectroscopically at 400 nm and quantification was performed using a standard curve. The initial levels of the above-mentioned substrates were mainly determined by their solubility in the assay buffer. […] The reduction of cytochrome c was measured spectroscopically at 550 nm. and the quantification was performed using extinction coefficient ε550 of 21.1 mM^−1 cm^−1.

[3] = XenA-GDH coupled cycling biotransformation of ketoisophorone to levodione; type: biochemical
Procedure: as §2
For XenA-GDH coupled cycling assays, the substrates ketoisophorone, citral, or trans-2-hexen-1-al were added at 33 mM, 10 mM, or 50 mM, respectively. For the OYE3-GDH coupled cycling assays, the substrate 4-phenyl-3-butyn-2-one was added at 5 mM. At various time points over 24 hours, 100 μL samples were taken and extracted with 100 μL ethyl acetate. Conversion was determined via GC-FID with octanol as an internal standard (see below). For NfsB-GDH coupled cycling assays, 2 mM nitrofurazone was used as the substrate. Nitrofurazone conversion was measured spectroscopically at 400 nm and quantification was performed using a standard curve. The initial levels of the above-mentioned substrates were mainly determined by their solubility in the assay buffer. For BM3-GDH coupled cycling assays, 50 μM cytochrome c (C2506 Sigma) was used as the substrate. The reduction of cytochrome c was measured spectroscopically at 550 nm. and the quantification was performed using extinction coefficient ε550 of 21.1 mM^−1 cm^−1.
Coupled cycling conditions: All biotransformation reactions were performed in buffer A at 30° C. for 24 hours. Reaction buffer A contained 200 mM potassium phosphate buffer (pH 7.5), 1 M NaCl, 300 mM D-glucose, 6 mM NMN^+. Substrate ketoisophorone was added at 5 g/L. At various time points over 24 hours, 100 μL samples were taken and extracted with 100 μL ethyl acetate. Conversion was determined via GC-FID with octanol as an internal standard (see below).

cytochrome c = test: BM3-GDH coupled cycling assay; type: biochemical; conditions: BM3 W1046S, NMNH generated in situ
Procedure: as §2, §3

[4] = NfsB-GDH coupled cycling assay; type: biochemical; conditions: NMN^+
Procedure: as §2, §3

[5] = XenA-GDH coupled cycling assay, citral; type: biochemical; conditions: 10 mM citral, 24 hours, NMN^+
Procedure: as §2, §3

[6] = GDH enzymatic assay with NAD^+ as cofactor; type: biochemical; conditions: for decrease of catalytic efficiency on NAD^+: versus wild type
Procedure: as §1

[7] = GDH total turnover number (TTN) determination; type: biochemical; conditions: NMN^+, GDH 0.47 μM, 33 mM ketoisophorone, 96 hours
Procedure: GDH Total Turnover Number (TTN) Determination. Total turnover number (TTN) was determined by the number of moles of product formed divided by the moles of purified GDH added. The assays were performed in reaction buffer A, as shown above, at 30° C. Ketoisophorone (33 mM) was used as the substrate. The reaction was started by spiking purified proteins (0.0132 mg mL^−1 or 0.47 μM for GDH, 0.75 mg mL^−1 for XenA). Samples were taken every 12 hours for 96 hours. The extraction and GC-FID analysis were performed using a similar method as mentioned above.

[8] = GDH enzymatic assay with NMN^+ as cofactor; type: biochemical; conditions: for overall specificity switch towards NMN^+ from NADP^+ / overall specificity switch towards NMN^+ from NAD^+: compared to wild type
Procedure: as §1

[9] = Protein expression levels of GDH variants; design: species or system Escherichia coli; conditions: expressed in E. coli
Procedure: Proteins were purified as 6×His tag fusion at the N-terminus. E. coli BL21 (DE3) with plasmids were inoculated into LB medium with 200 mg L^−1 ampicillin. Cells were induced with 0.5 mM IPTG and expressed for 24 hours at 30° C. with shaking at 250 rpm. BM3 cytochrome P450 was extracted with the EMD Millipore™ BugBuste Plus Lysonase Kit and purified using the HisPur™ Ni-NTA Superflow Purification System according to the manufacturer's instructions. Other proteins were purified using His-Spin Protein Miniprep kit (Zymo Research Corporation, CA). The purified proteins were quantified by Bradford assay.

[10] = OYE3-GDH coupled cycling assay; type: biochemical; conditions: OYE3, NMN^+
Procedure: as §2, §3

[11] = XenA activity with different cofactors; type: biochemical; conditions: ketoisophorone as substrate
Procedure: Enzyme assay conditions: The enzymatic buffer contained 200 mM phosphate buffer (pH 7.5), 5 mM ketoisophorone, and 0.2 mM NADPH, NADH, or NMNH, and appropriate amount of purified XenA protein. The initial reaction rate was quantified by absorbance variation at 340 nm using a spectrophotometer at 37° C. Reactions with no ketoisophorone added were performed to quantify the non-specific reaction rate. The net reaction rate as shown in FIG. 13 was calculated by subtracting the non-specific reaction rate from the total reaction rate. For generating NMNH, a microcentrifuge tube (2 mL) containing 35 mM Tris-HCl (pH 8.0), 4 mM NMN^+, 1 M NaCl and 140 mM glucose, was incubated for ˜3 hr at 30° C. with purified Bs GDH I195R. An aliquot of this reaction system was taken to measure the accumulation of NMNH by reading absorbance at 340 nm. The proteins in the reaction were removed by filtering the mixture with centrifugal filter units (Amicon Ultra-0.5 Centrifugal Filter Units, Millipore, USA). The solvent was evaporated, and the residue was collected to give NMNH as a yellowish oil.

B1: I195R-A93K-Y39Q: Bs GDH with I195R, A93K, Y39Q substitutions (SEQ ID NO:6) (protein)
chain: MYPDLKGKVVAITGAASGLGKAMAIRFGKEQAKVVINYQSNKQDPNEVKEEVIKAGGEAVVVQGDVTKEEDVKNIVQTAIKEFGTLDIMINNKGLENPVPSHEMPLKDWDKVIGTNLTGAFLGSREAIKYFVENDIKGNVINMSSVHEVIPWPLFVHYAASKGGIKLMTETLALEYAPKGIRVNNIGPGAINTPRNAEKFADPKQKADVESMIPMGYIGEPEEIAAVAAWLASKEASYVTGITLFADGGMTQYPSFQAGRG
modifications: I195R A93K Y39Q mutant GDH coding sequence
[1]; cofactor NADP^+
  Kcat: 4.4 ± 0.034 s⁻¹
  Km: 0.61 ± 0.15 mM
[1]
  decrease of catalytic efficiency on NADP^+: 1,600 fold
[1]; listed as GDH Triple
  decrease of catalytic efficiency on NADP^+: 38 fold
[2]
  conversion of trans-2-hexen-1-al: ~49%
[3]; NMN^+ as cycling cofactor, XenA in excess, GDH 11.7 μM
  initial productivity of levodione: ~1.15 µM/s
[3]; NMN^+, Bs GDH loading 11.7 μM
  initial turnover frequency: ~0.10 s⁻¹
[3]; versus wild type Bs GDH
  improvement of NMN^+-dependent productivity: 22 fold
Cytochrome c
  conversion (reduction) of cytochrome c: > 99%
[4]
  conversion of nitrofurazone: ~92%
[5]
  conversion of citral: ~76%
[6]; cofactor NAD^+
  Kcat: 0.41 ± 0.026 s⁻¹
  Km: 3.7 ± 0.93 mM
[6]
  decrease of catalytic efficiency on NAD^+: 38 fold
[6]; listed as GDH Triple
  decrease of catalytic efficiency on NAD^+: 1,600 fold
[7]
  total turnover number (TTN): 39,000
[8]
  increase in catalytic efficiency over the wild-type enzyme towards NMN^+: 1,000 fold
  overall specificity switch towards NMN^+ from NADP^+: 1,600,000 fold
  overall specificity switch towards NMN^+ from NAD^+: 38,000 fold
[8]; NMN^+
  improvement in catalytic efficiency over I195R: 4 fold
[8]; cofactor NMN^+
  Kcat: 3.1 ± 0.037 s⁻¹
  Km: 6.1 ± 0.83 mM
[8]; listed as GDH Triple
  overall specificity switch towards NMN^+ from NADP^+: 38,000 fold
  overall specificity switch towards NMN^+ from NAD^+: 1,600,000 fold
[9]
  Expression level: 25.37 μg protein/ml culture
[10]
  conversion of 4-phenyl-3-butyne-2-one: > 99%

B2: XenA: enoate reductase XenA from Pseudomonas putida, wild type (protein, listed as Pseudomonas putida)
chain: MSALFEPYTLKDVTLRNRIAIPPMCQYMAEDGLINDWHQVHYASMARGGAGLLVVEATAVAPEGRITPGCAGIWSDAHAQAFVPVVQAIKAAGSVPGIQIAHAGRKASANRPWEGDDHIGADDARGWETIAPSAIAFGAHLPNVPRAMTLDDIARVKQDFVDAARRARDAGFEWIELHFAHGYLGQSFFSEHSNKRTDAYGGSFDNRSRFLLETLAAVREVWPENLPLTARFGVLEYDGRDEQTLEESIELARRFKAGGLDLLSVSVGFTIPETNIPWGPAFMGPIAERVRREAKLPVTSAWGFGTPQLAEAALQANQLDLVSVGRAHLADPHWAYFAAKELGVEKASWTLPAPYAHWLERYR
[11]
  activity with NMNH as reducing cofactor: comparable activity to the natural cofactors NADH and NADPH; also recorded: comparable activity to the natural cofactors NADPH and NADH

Source: patent US12618050B2, “Engineered polypeptides that exhibit increased catalytic efficiency for unnatural cofactors and uses thereof” (The Regents of the University of California, priority 2018, dated 2026)
